Stoichiometry N data for two substances are collected here from paper doi:10.1101/826115.

The target in the assay is Respiratory complex I (mouse (endogenous in mouse tissues and L929 cells)) (UniProt Q9DC69). In words: Blue-DiS complexome profiling.
Sequence of UniProt Q9DC69 (Q9DC69 whole entry, looked up, one chain of several): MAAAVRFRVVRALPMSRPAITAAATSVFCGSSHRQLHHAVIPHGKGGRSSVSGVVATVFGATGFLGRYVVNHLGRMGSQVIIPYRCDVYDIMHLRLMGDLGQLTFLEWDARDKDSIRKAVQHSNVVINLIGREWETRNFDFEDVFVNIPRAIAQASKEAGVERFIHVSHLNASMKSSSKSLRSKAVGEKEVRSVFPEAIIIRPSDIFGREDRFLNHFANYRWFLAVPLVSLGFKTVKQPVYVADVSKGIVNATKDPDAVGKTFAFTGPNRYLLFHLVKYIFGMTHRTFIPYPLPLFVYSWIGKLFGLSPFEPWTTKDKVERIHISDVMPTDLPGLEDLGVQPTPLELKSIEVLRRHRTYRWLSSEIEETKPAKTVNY

Turning to “Respiratory complex III dimer (from UniProt Q9DB77 15-453)”, the stoichiometry N is 2 CIII:CI.

Turning to “Respiratory complex IV (from UniProt P00397 1-514)”, the stoichiometry N is 1 CI:CIV.
